The source of these data is PMC9942802.

For this assay, the target named is tube protein gp14 (cyanophage Pam3). Briefly: cryo-EM structure.

A word on the stoichiometry N: it is a count of units in the complex or per binding partner. In turn, tube protein gp14 (natural protein) returned a stoichiometry N of 6.
